Where two headings read alike, the source gives them in different places.
T1: B7H3 (human, UniProt Q5ZPR3 29-534)
T1 sequence (looked up): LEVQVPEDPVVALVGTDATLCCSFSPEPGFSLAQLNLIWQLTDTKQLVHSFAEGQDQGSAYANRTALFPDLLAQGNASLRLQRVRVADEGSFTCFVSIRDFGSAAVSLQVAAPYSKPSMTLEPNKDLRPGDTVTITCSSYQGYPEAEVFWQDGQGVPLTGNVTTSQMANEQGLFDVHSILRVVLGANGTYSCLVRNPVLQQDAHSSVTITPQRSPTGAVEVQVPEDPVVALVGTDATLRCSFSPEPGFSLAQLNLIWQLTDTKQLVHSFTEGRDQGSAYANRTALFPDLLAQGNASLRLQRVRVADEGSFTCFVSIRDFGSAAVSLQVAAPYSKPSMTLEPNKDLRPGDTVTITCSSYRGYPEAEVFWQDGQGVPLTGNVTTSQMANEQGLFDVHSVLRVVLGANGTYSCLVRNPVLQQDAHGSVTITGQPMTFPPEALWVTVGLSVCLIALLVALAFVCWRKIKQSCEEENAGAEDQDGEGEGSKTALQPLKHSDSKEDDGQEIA

B1: ADC4-9 (antibody, human IgG1, kappa, V domains shown)
VH: QVQLVQSGAEVKKPGSSVKVSCKASGYTFTNYVMHWVRQAPGQGLEWMGYINPYNDDVKYNEKFKGRVTITADESTSTAYMELSSLRSEDTAVYYCARWGYYGSPLYYFDYWGQGTLVTVSS
VL: EIVLTQSPATLSLSPGERATLSCRASSRLIYMHWYQQKPGQAPRPLIYATSNLASGIPARFSGSGSGTDFTLTISSLEPEDFAVYYCQQWNSNPPTFGQGTKVEIKR
modifications: conjugator-linker-payload on cysteine thiols after TCEP reduction (DAR8), maleimide hydrolysed; residues not numbered; structure given only as a drawing
B2: ADC4-14 (antibody, human IgG1, kappa, V domains shown)
VH: QVQLVQSGAEVKKPGSSVKVSCKASGYTFTNYVMHWVRQAPGQGLEWMGYINPYNDDVKYNEKFKGRVTITADESTSTAYMELSSLRSEDTAVYYCARWGYYGSPLYYFDYWGQGTLVTVSS
VL: EIVLTQSPATLSLSPGERATLSCRASSRLIYMHWYQQKPGQAPRPLIYATSNLASGIPARFSGSGSGTDFTLTISSLEPEDFAVYYCQQWNSNPPTFGQGTKVEIKR
modifications: conjugator-linker-payload on cysteine thiols after TCEP reduction (DAR8), maleimide hydrolysed; residues not numbered; structure given only as a drawing
B3: ADC4-10 (antibody, human IgG1, kappa, V domains shown)
VH: QVQLVQSGAEVKKPGSSVKVSCKASGYTFTNYVMHWVRQAPGQGLEWMGYINPYNDDVKYNEKFKGRVTITADESTSTAYMELSSLRSEDTAVYYCARWGYYGSPLYYFDYWGQGTLVTVSS
VL: EIVLTQSPATLSLSPGERATLSCRASSRLIYMHWYQQKPGQAPRPLIYATSNLASGIPARFSGSGSGTDFTLTISSLEPEDFAVYYCQQWNSNPPTFGQGTKVEIKR
modifications: conjugator-linker-payload on cysteine thiols after TCEP reduction (DAR8), maleimide hydrolysed; residues not numbered; structure given only as a drawing
B4: ADC4-11 (antibody, human IgG1, kappa, V domains shown)
VH: QVQLVQSGAEVKKPGSSVKVSCKASGYTFTNYVMHWVRQAPGQGLEWMGYINPYNDDVKYNEKFKGRVTITADESTSTAYMELSSLRSEDTAVYYCARWGYYGSPLYYFDYWGQGTLVTVSS
VL: EIVLTQSPATLSLSPGERATLSCRASSRLIYMHWYQQKPGQAPRPLIYATSNLASGIPARFSGSGSGTDFTLTISSLEPEDFAVYYCQQWNSNPPTFGQGTKVEIKR
modifications: conjugator-linker-payload on cysteine thiols after TCEP reduction (DAR8), maleimide hydrolysed; residues not numbered; structure given only as a drawing
B5: ADC4-16 (antibody, human IgG1, kappa, V domains shown)
VH: QVQLVQSGAEVKKPGSSVKVSCKASGYTFTNYVMHWVRQAPGQGLEWMGYINPYNDDVKYNEKFKGRVTITADESTSTAYMELSSLRSEDTAVYYCARWGYYGSPLYYFDYWGQGTLVTVSS
VL: EIVLTQSPATLSLSPGERATLSCRASSRLIYMHWYQQKPGQAPRPLIYATSNLASGIPARFSGSGSGTDFTLTISSLEPEDFAVYYCQQWNSNPPTFGQGTKVEIKR
modifications: conjugator-linker-payload on cysteine thiols after TCEP reduction (DAR8), maleimide hydrolysed; residues not numbered; structure given only as a drawing

Tests used:
[1] = target: T1, B7H3; experiment: cell-based or functional assay
[2] = target: T1, B7H3; experiment: cell-based or functional assay; remark: listed apart in the source

Binder | EC50 (nM), ADC direct killing, Capan-1 (Low), 3D [1] [nM] | EC50 (nM), ADC direct killing, NCI-H1650 (High), 3D [1] [nM] | Emax (%), ADC direct killing, Capan-1 (Low), 3D [1] [%] | Emax (%), ADC direct killing, NCI-H1650 (High), 3D [1] [%] | EC50 (nM), ADC direct killing, Capan-1 (Low), 3D [2] [nM] | EC50 (nM), ADC direct killing, NCI-H1650 (High), 3D [2] [nM] | Emax (%), ADC direct killing, Capan-1 (Low), 3D [2] [%] | Emax (%), ADC direct killing, NCI-H1650 (High), 3D [2] [%]
B1 | 0.8 | 2.8 | 78.8 | 81.4 | – | – | – | –
B2 | – | – | – | – | 0.4 | 1.3 | 61.3 | 81.6
B3 | 0.6 | 1.7 | 68.4 | 80 | – | – | – | –
B4 | – | – | – | – | 1 | 2.1 | 62.4 | 85.6
B5 | – | – | – | – | 0.6 | 1.5 | 62.2 | 76.4

Reference: patent publication US20250352659A1, “SELF-STABILIZING LINKER CONJUGATES” (priority 2023, published 2025)
